Values of other authors in publication PMC11631806.

Molecular target: Cys32 (UniProt position 32, FSATWCGPCKM)
Conditions: not stated (reduced dithiol form implied by thiol titration)

Thioredoxin (cytosolic Trx, Trx1) (Homo sapiens (inferred; the article does not name the species for these values))
pKa: 6.3 ± 0.1
